From patent publication US20200140551A1 (GlaxoSmithKline, published 2020)

Key:
[1] = target: T1, human ICOS on human T cells (human, UniProt Q9Y6W8 21-167); assay: flow cytometry, activated human CD8 T cells, FITC MFI, median of donors
T1 construct: endogenous receptor on primary cells; also called ICOS on CD4+ and CD8+ T cells of healthy human donors
T1 sequence: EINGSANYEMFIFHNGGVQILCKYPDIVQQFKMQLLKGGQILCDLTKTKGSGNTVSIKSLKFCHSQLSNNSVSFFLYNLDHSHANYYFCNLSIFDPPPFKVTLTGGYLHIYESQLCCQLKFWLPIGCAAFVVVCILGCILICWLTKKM
Description: (§1) Either naive and/or activated CD3+ T cells were re-suspended in PBS with 0.1% BSA (FACS Buffer) containing Human FcR Blocking Solution at 2×10⁶ cells/mL (5 μl FcR Blocking Solution+[…] FACS Buffer per 1 mL). At a concentration of 2×10⁵ cells/well, 100 μl cells were placed into 2 mL 96 well Assay Blocks and incubated at room temperature for 15 minutes. During the incubation, a titration of the binding antibodies, anti-ICOS (H2L5 hIgG4PE) or IgG4 Isotype Control antibody was prepared as a 2× concentration. […] Following the binding incubation, cells were washed twice in 1 mL of FACS buffer, centrifuging at 400×g for 5 minutes at room temperature.
(§2) Data acquisition and compensation were performed on BD FACS instruments, LSR Fortessa X-20 or FACS Canto II using BD Diva (ver. 8.0) software. Data analysis employed Flow Jo software (ver.10.0.8r1). Results are reported as both MFI (Median Fluorescence Intensity) and Percent of cells positive for human IgG kappa light chain FITC staining out of the total live cells or appropriate parent population. EC50s were determined using Graphpad Prism 5 software (ver. 5.04) with non-linear regression of transformed data (X=(log(X)) using a variable slope with 4 parameters (log(Agonist) vs. response—Variable slope).

[2] = target: T1, human ICOS on human T cells; assay: flow cytometry, activated human CD8 T cells, percent FITC positive, donor 1149M52
Description: (§3) Binding of H2L5 hIgG4PE was assessed in both naive and activated CD3+ T cells.
as §1, §2

[3] = target: T1, human ICOS on human T cells; assay: flow cytometry, activated human CD4 T cells, percent FITC positive, donor 1149M52
Description: as §3, §1, §2

[4] = target: T1, human ICOS on human T cells; assay: flow cytometry, activated human CD8 T cells, percent FITC positive, donor 1173F42
Description: as §1, §2

[5] = target: T1, human ICOS on human T cells; assay: flow cytometry, activated human CD4 T cells, percent FITC positive, donor 1173F42
Description: as §3, §1, §2

[6] = target: T1, human ICOS on human T cells; assay: flow cytometry, activated human CD4 T cells, FITC MFI, donor 1141F45
Description: as §3, §1, §2

[7] = target: T2, human FcγR I (human, UniProt P12314 16-288, limits assumed); assay: affinity to human Fcγ receptors; method not described
T2 construct: also called CD64

[8] = target: T1, human ICOS on human T cells; assay: flow cytometry, activated human CD4 T cells, FITC MFI, donor 1123F59
Description: as §3, §1, §2

[9] = target: T1, human ICOS on human T cells; assay: flow cytometry, activated human CD4 T cells, FITC MFI, mean of donors
Description: as §1, §2

[10] = target: T1, human ICOS on human T cells; assay: cell-based or functional assay

T2 sequence (P12314 16-288 limits assumed): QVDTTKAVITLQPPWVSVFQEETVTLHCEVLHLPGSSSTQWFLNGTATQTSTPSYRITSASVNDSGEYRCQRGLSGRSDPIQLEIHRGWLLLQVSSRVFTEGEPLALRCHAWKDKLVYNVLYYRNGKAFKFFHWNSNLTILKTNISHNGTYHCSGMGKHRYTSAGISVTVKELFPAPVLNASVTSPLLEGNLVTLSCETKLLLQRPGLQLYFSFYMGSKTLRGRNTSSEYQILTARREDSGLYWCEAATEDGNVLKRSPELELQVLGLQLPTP

EC50 [1]: 0.652 µg/mL
EC50 [2]: 0.547 µg/mL
EC50 [3]: 0.882 µg/mL
EC50 [4]: 0.371 µg/mL
EC50 [5]: 0.612 µg/mL
EC50 [6]: 1.27 µg/mL
Kd [7]: 645 nM
EC50 [8]: 1.04 µg/mL
EC50 [9]: 0.977 µg/mL
EC50, CD4+CD25+, PBMC activation assay, donor 185M45, 24 hr [10]: 2.4 µg/mL
EC50, CD4+CD25+, PBMC activation assay, donor 185M45, 48 hr [10]: 0.5 µg/mL
EC50, CD4+CD25+, PBMC activation assay, donor 1124F36, 24 hr [10]: 0.6 µg/mL
EC50, CD4+CD25+, PBMC activation assay, donor 1124F36, 48 hr [10]: 0.6 µg/mL
EC50, CD4+CD25+, PBMC activation assay, donor 1136F50, 24 hr [10]: 0.3 µg/mL
EC50, CD4+CD25+, PBMC activation assay, donor 1136F50, 48 hr [10]: 0.6 µg/mL
EC50, CD4+CD25+, PBMC activation assay, donor 1149M52, 24 hr [10]: 0.6 µg/mL
EC50, CD4+CD25+, PBMC activation assay, donor 1149M52, 48 hr [10]: 0.4 µg/mL
EC50, CD4+CD69+, PBMC activation assay, donor 185M45, 24 hr [10]: 0.8 µg/mL
EC50, CD4+CD69+, PBMC activation assay, donor 1124F36, 24 hr [10]: 1.1 µg/mL
EC50, CD4+CD69+, PBMC activation assay, donor 1124F36, 48 hr [10]: 1.1 µg/mL
EC50, CD4+CD69+, PBMC activation assay, donor 1136F50, 24 hr [10]: 0.5 µg/mL
EC50, CD4+CD69+, PBMC activation assay, donor 1136F50, 48 hr [10]: 0.4 µg/mL
EC50, CD4+CD69+, PBMC activation assay, donor 1149M52, 24 hr [10]: 0.5 µg/mL
EC50, CD4+CD69+, PBMC activation assay, donor 1149M52, 48 hr [10]: 0.4 µg/mL
EC50, CD4+Ki67+, PBMC activation assay, donor 185M45, 48 hr [10]: 0.6 µg/mL
EC50, CD4+Ki67+, PBMC activation assay, donor 1124F36, 48 hr [10]: 0.8 µg/mL
EC50, CD4+Ki67+, PBMC activation assay, donor 1149M52, 48 hr [10]: 0.5 µg/mL
EC50, CD4+OX40+, PBMC activation assay, donor 185M45, 24 hr [10]: 1.6 µg/mL
EC50, CD4+OX40+, PBMC activation assay, donor 1124F36, 24 hr [10]: 0.6 µg/mL
EC50, CD4+OX40+, PBMC activation assay, donor 1124F36, 48 hr [10]: 1.2 µg/mL
EC50, CD4+OX40+, PBMC activation assay, donor 1136F50, 24 hr [10]: 0.2 µg/mL
EC50, CD4+OX40+, PBMC activation assay, donor 1136F50, 48 hr [10]: 0.4 µg/mL
EC50, CD4+OX40+, PBMC activation assay, donor 1149M52, 24 hr [10]: 0.6 µg/mL
EC50, CD4+OX40+, PBMC activation assay, donor 1149M52, 48 hr [10]: 0.4 µg/mL
EC50, CD8+CD25+, PBMC activation assay, donor 185M45, 24 hr [10]: 2 µg/mL
EC50, CD8+CD25+, PBMC activation assay, donor 185M45, 48 hr [10]: 0.5 µg/mL
EC50, CD8+CD25+, PBMC activation assay, donor 1124F36, 24 hr [10]: 0.6 µg/mL
EC50, CD8+CD25+, PBMC activation assay, donor 1124F36, 48 hr [10]: 0.5 µg/mL
EC50, CD8+CD25+, PBMC activation assay, donor 1136F50, 24 hr [10]: 0.4 µg/mL
EC50, CD8+CD25+, PBMC activation assay, donor 1136F50, 48 hr [10]: 0.7 µg/mL
EC50, CD8+CD25+, PBMC activation assay, donor 1149M52, 24 hr [10]: 1 µg/mL
EC50, CD8+CD25+, PBMC activation assay, donor 1149M52, 48 hr [10]: 0.4 µg/mL
EC50, CD8+CD69+, PBMC activation assay, donor 185M45, 24 hr [10]: 1.2 µg/mL
EC50, CD8+CD69+, PBMC activation assay, donor 185M45, 48 hr [10]: 0.5 µg/mL
EC50, CD8+CD69+, PBMC activation assay, donor 1124F36, 24 hr [10]: 0.8 µg/mL
EC50, CD8+CD69+, PBMC activation assay, donor 1124F36, 48 hr [10]: 1.1 µg/mL
EC50, CD8+CD69+, PBMC activation assay, donor 1136F50, 24 hr [10]: 0.5 µg/mL
EC50, CD8+CD69+, PBMC activation assay, donor 1136F50, 48 hr [10]: 0.6 µg/mL
EC50, CD8+CD69+, PBMC activation assay, donor 1149M52, 24 hr [10]: 0.6 µg/mL
EC50, CD8+CD69+, PBMC activation assay, donor 1149M52, 48 hr [10]: 0.4 µg/mL
EC50, CD8+Ki67+, PBMC activation assay, donor 185M45, 48 hr [10]: 0.4 µg/mL
EC50, CD8+Ki67+, PBMC activation assay, donor 1124F36, 48 hr [10]: 0.7 µg/mL
EC50, CD8+Ki67+, PBMC activation assay, donor 1149M52, 48 hr [10]: 0.3 µg/mL
EC50, CD8+OX40+, PBMC activation assay, donor 185M45, 24 hr [10]: 1.6 µg/mL
EC50, CD8+OX40+, PBMC activation assay, donor 1124F36, 24 hr [10]: 2.4 µg/mL
EC50, CD8+OX40+, PBMC activation assay, donor 1124F36, 48 hr [10]: 0.5 µg/mL
EC50, CD8+OX40+, PBMC activation assay, donor 1136F50, 24 hr [10]: 0.3 µg/mL
EC50, CD8+OX40+, PBMC activation assay, donor 1136F50, 48 hr [10]: 0.5 µg/mL
EC50, CD8+OX40+, PBMC activation assay, donor 1149M52, 24 hr [10]: 1.5 µg/mL
EC50, CD8+OX40+, PBMC activation assay, donor 1149M52, 48 hr [10]: 0.3 µg/mL
EC50, IFN-γ, PBMC activation assay, donor 185M45, 24 hr [10]: 0.3 µg/mL
EC50, IFN-γ, PBMC activation assay, donor 185M45, 48 hr [10]: 0.7 µg/mL
EC50, IFN-γ, PBMC activation assay, donor 1124F36, 24 hr [10]: 0.3 µg/mL
EC50, IFN-γ, PBMC activation assay, donor 1124F36, 48 hr [10]: 0.5 µg/mL
EC50, IFN-γ, PBMC activation assay, donor 1136F50, 24 hr [10]: 0.4 µg/mL
EC50, IFN-γ, PBMC activation assay, donor 1136F50, 48 hr [10]: 1.5 µg/mL
EC50, IFN-γ, PBMC activation assay, donor 1149M52, 24 hr [10]: 0.2 µg/mL
EC50, IFN-γ, PBMC activation assay, donor 1149M52, 48 hr [10]: 0.6 µg/mL
EC50, IL-6, PBMC activation assay, donor 185M45, 24 hr [10]: 0.7 µg/mL
EC50, IL-6, PBMC activation assay, donor 185M45, 48 hr [10]: 0.8 µg/mL
EC50, IL-6, PBMC activation assay, donor 1136F50, 24 hr [10]: 0.7 µg/mL
EC50, IL-6, PBMC activation assay, donor 1136F50, 48 hr [10]: 1.1 µg/mL
EC50, IL-6, PBMC activation assay, donor 1149M52, 24 hr [10]: 0.2 µg/mL
EC50, IL-6, PBMC activation assay, donor 1149M52, 48 hr [10]: 0.3 µg/mL
EC50, IL-10, PBMC activation assay, donor 185M45, 24 hr [10]: 0.7 µg/mL
EC50, IL-10, PBMC activation assay, donor 185M45, 48 hr [10]: 0.8 µg/mL
EC50, IL-10, PBMC activation assay, donor 1124F36, 24 hr [10]: 0.7 µg/mL
EC50, IL-10, PBMC activation assay, donor 1124F36, 48 hr [10]: 0.6 µg/mL
EC50, IL-10, PBMC activation assay, donor 1136F50, 24 hr [10]: 1.7 µg/mL
EC50, IL-10, PBMC activation assay, donor 1136F50, 48 hr [10]: 1.3 µg/mL
EC50, IL-10, PBMC activation assay, donor 1149M52, 24 hr [10]: 0.5 µg/mL
EC50, IL-10, PBMC activation assay, donor 1149M52, 48 hr [10]: 0.6 µg/mL
EC50, IL-17a, PBMC activation assay, donor 185M45, 24 hr [10]: 0.8 µg/mL
EC50, IL-17a, PBMC activation assay, donor 185M45, 48 hr [10]: 1.1 µg/mL
EC50, IL-17a, PBMC activation assay, donor 1124F36, 24 hr [10]: 0.6 µg/mL
EC50, IL-17a, PBMC activation assay, donor 1124F36, 48 hr [10]: 0.8 µg/mL
EC50, IL-17a, PBMC activation assay, donor 1136F50, 24 hr [10]: 1.4 µg/mL
EC50, IL-17a, PBMC activation assay, donor 1136F50, 48 hr [10]: 1.6 µg/mL
EC50, IL-17a, PBMC activation assay, donor 1149M52, 24 hr [10]: 0.7 µg/mL
EC50, IL-17a, PBMC activation assay, donor 1149M52, 48 hr [10]: 1 µg/mL
EC50, TNF-α, PBMC activation assay, donor 185M45, 48 hr [10]: 0.5 µg/mL
EC50, TNF-α, PBMC activation assay, donor 1124F36, 48 hr [10]: 0.3 µg/mL
EC50, TNF-α, PBMC activation assay, donor 1136F50, 48 hr [10]: 0.3 µg/mL
EC50, TNF-α, PBMC activation assay, donor 1149M52, 48 hr [10]: 0.2 µg/mL
B1: H2L5 hIgG4PE (antibody)
heavy: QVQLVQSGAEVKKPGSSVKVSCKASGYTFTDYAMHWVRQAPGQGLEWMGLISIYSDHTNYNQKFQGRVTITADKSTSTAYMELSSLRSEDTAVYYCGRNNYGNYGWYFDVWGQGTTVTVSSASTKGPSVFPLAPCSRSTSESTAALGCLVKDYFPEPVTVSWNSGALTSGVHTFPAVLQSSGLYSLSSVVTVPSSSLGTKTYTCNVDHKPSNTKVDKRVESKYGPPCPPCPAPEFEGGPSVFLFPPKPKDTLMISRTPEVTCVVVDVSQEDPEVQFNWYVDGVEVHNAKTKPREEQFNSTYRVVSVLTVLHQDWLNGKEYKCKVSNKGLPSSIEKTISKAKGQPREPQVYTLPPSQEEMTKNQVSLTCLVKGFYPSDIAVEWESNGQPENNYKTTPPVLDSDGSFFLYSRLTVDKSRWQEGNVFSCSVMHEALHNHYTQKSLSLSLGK
light: EIVLTQSPATLSLSPGERATLSCSASSSVSYMHWYQQKPGQAPRLLIYDTSKLASGIPARFSGSGSGTDYTLTISSLEPEDFAVYYCFQGSGYPYTFGQGTKLEIKRTVAAPSVFIFPPSDEQLKSGTASVVCLLNNFYPREAKVQWKVDNALQSGNSQESVTEQDSKDSTYSLSSTLTLSKADYEKHKVYACEVTHQGLSSPVTKSFNRGEC
notes: also called 422 H2L5 hIgG4PE; H2L5 IgG4PE; copies: 2 + 2
